For assay [1], the target named is T1, FAM19A5 protein (Homo sapiens, UniProt Q7Z5A7). The assay is described as follows: ELISA, coated hFc-conjugated ectodomain (100 nM/well), rFAM19A5 titrated 0.005-10 nM. (In general: An ELISA detects its analyte on a solid surface through an enzyme-linked reagent.)
Assay [2] deals with binding of FAM19A5 protein to full-length ectodomain of LRRC4C protein (Homo sapiens, UniProt Q7Z5A7). In words: Competitive inhibition assay, plate coated with full-length ectodomain of LRRC4C. The following applies: FAM19A5 5 ng/mL; 100 nM/well coat. The procedure: (§1) As described in Example 3, there appeared to be much similarity in the binding domains of the different members of the LRRC4 family. […] Then, recombinant FAM19A5 protein (5 ng/mL) was added in combination with one of the following: (i) LRRC4B (484-576) protein fragment, (ii) LRRC4B (453-576, AA) protein fragment, and (iii) synthetic FB-20 peptide. The plates were incubated at 37° C., and then, the amount of FAM19A5 protein bound to the coated LRRC4, LRRC4B, or LRRC4C proteins was measured using anti-FAM19A5 (1-65) antibody.

Assay [3] concerns the target T1, FAM19A5 protein. In words: Co-immunoprecipitation of FLAG-tagged LRRC4 family deletion constructs/fragments with recombinant FAM19A5 in HEK293 cells. Type of assay: binding. Particulars: HEK293 cells expressing FLAG-tagged construct, recombinant FAM19A5 1 μM 30 minutes; IP anti-FLAG, blot anti-FAM19A5 (3-2). The method in brief:
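HEK293 cells expressing FLAG-tagged LRRC4B deletion constructs or LRRC4C (aa 354-527) / LRRC4 (aa 353-527) fragments were treated with 1 μM recombinant FAM19A5 for 30 min. Lysates immunoprecipitated with anti-FLAG and immunoblotted with anti-FLAG and anti-FAM19A5 (3-2) antibodies.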
Target sequence in this assay (Q7Z5A7 44-132): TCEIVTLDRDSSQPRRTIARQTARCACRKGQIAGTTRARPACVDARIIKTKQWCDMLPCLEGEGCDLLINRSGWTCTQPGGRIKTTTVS

Assay [4] addresses binding of FAM19A5 protein to full-length ectodomain of LRRC4 protein (Homo sapiens, UniProt Q7Z5A7). In words: Competitive inhibition assay, plate coated with full-length ectodomain of LRRC4. Particulars: FAM19A5 5 ng/mL; 100 nM/well coat. The procedure:
as §1

Assay [5] has as its target binding of FAM19A5 protein to full-length ectodomain of the LRRC4B protein (amino acids 36-576 of SEQ ID NO: 2) (Homo sapiens, UniProt Q7Z5A7). The assay is described as follows: Competitive inhibition assay, plate coated with full-length ectodomain of LRRC4B (amino acids 36-576). The following applies: increasing concentrations; FAM19A5 5 ng/mL; 100 nM coat. The procedure: Next, to further assess the role that the binding domain of the LRRC4B protein has on the interaction between FAM19A5 protein and members of the LRRC4 protein family, a competitive inhibition assay was used to determine whether different LRRC4B deletion constructs from Example 2 could inhibit the binding of FAM19A5 to the full-length ectodomain of the LRRC4B protein (i.e., amino acids 36-576 of SEQ ID NO: 2; SEQ ID NO: 5). Briefly, 100 nM of the full-length ectodomain of the LRRC4B protein was used to coat a plate, and then recombinant FAM19A5 protein (5 ng/mL) was added to the plate in combination with the following LRRC4B deletion constructs (increasing concentrations): (1) LRRC4B (453-576) (i.e., construct #11 in Table 6); (2) LRRC4B (453-576) mutant (comprises alanine substitutions at positions 488 and 489 of SEQ ID NO: 2; SEQ ID NO: 16); (3) LRRC4B (484-576) (i.e., construct #12 in Table 6); (4) LRRC4B (482-576); (5) LRRC4B (482-497); and (6) LRRC4B (498-576). The plates were incubated at 37° C., and then, the amount of FAM19A5 bound to the coated LRRC4B ectodomain protein was measured using HRP-conjugated anti-FAM19A5 (1-65) antibody.
as §1
Next, to assess whether polypeptides comprising the binding domains of LRRC4 or LRRC4C proteins can have similar inhibitory effects on LRRC4B protein binding, the following synthetic peptides were constructed: (1) FBC4-23 (contains the binding domain of the LRRC4 protein, i.e., YSFFTTVTVETTE); and (2) FBC4C-23 (contains the binding domain of the LRRC4C protein, i.e., FSYFSTVTVETME). Then, the ability of the peptides to inhibit the binding of LRRC4 protein family members to FAM19A5 protein was assessed using a competitive inhibition assay. Briefly, plates were coated with 100 nM of either LRRC4B protein fragment #1 (amino acids 36-576 of SEQ ID NO: 2; SEQ ID NO: 5) or LRRC4B protein fragment #2 (amino acids 453-576 of SEQ ID NO: 2; SEQ ID NO: 7). Then, recombinant FAM19A5 protein (5 ng/ml for plates coated with LRRC4B fragment #1; and 1 ng/mL for plates coated with LRRC4B fragment #2) was added to the plates in combination with 20 nM of the FBC4-23, FBC4C-23, and FB-20 peptides. The plates were incubated at 37° C. and then, the amount of FAM19A5 protein bound to the coated LRRC4B protein fragments was assessed using HRP-conjugated anti-FAM19A5 (1-65) antibody.
Next, to determine the minimal sequence required to inhibit the interaction of FAM19A5 and members of the LRRC4 protein family, ten FB-20 peptide variants were constructed by serially deleting one or more amino acids from the N-terminus or C-terminus of the FB-20 peptide. Then, a competitive inhibition assay was used to assess the ability of the different FB-20 peptide variants to inhibit the interaction between FAM19A5 and LRRC4B protein. Again, plates were coated with 100 nM of either LRRC4B protein fragment #1 (amino acids 36-576 of SEQ ID NO: 2; SEQ ID NO: 5) or LRRC4B protein fragment #2 (amino acids 453-576 of SEQ ID NO: 2; SEQ ID NO: 7). Then, recombinant FAM19A5 protein (5 ng/ml for plates coated with LRRC4B fragment #1; and 1 ng/mL for plates coated with LRRC4B fragment #2) was added to the plates in combination with 20 nM of the different peptides described above. After incubating the plates at 37° C., the amount of FAM19A5 protein bound to the coated LRRC4B protein fragments was assessed using HRP-conjugated anti-FAM19A5 (1-65) antibody. […]

Assay [6] concerns the target T2, FAM19A5 isoform 2 - LRRC4B protein complex in HEK293 cells (Homo sapiens, UniProt Q7Z5A7).
T2 construct: expressed in transfected cells; host or cells: HEK293
The assay is described as follows: Immunofluorescence: dissociation of FAM19A5 from full-length LRRC4B in HEK293 cells. The class given is cell-based. The following applies: HEK293 cells expressing FAM19A5 isoform 2 and LRRC4B, treated 30 minutes. The procedure:
Since LRRC4B protein fragments containing the binding domain described in Example 2 (e.g., LRRC4B (453-576); i.e., construct #11 in Table 6) was able to bind to FAM19A5 protein with high affinity, it was next assessed whether such protein fragments could compete with naturally existing LRRC4B protein for binding to FAM19A5 protein, and thereby, dissociate the FAM19A5-LRRC4 protein family complex. Briefly, HEK293 cells expressing both FAM19A5 isoform 2 and LRRC4B protein were treated in vitro for 30 minutes with either LRRC4B (453-576)-hFc or mutant LRRC4B (453-576)-hFc (includes alanine substitutions at positions 488 and 489 of SEQ ID NO: 2; SEQ ID NO: 16) protein fragments. Then, cells were immunostained with anti-FAM19A5 (1-65) and anti-LRRC4B antibodies to determine the expression of FAM19A5 and full-length LRRC4B proteins, respectively. The hFc-fused LRRC4B protein fragments were determined using an anti-hIgG antibody. The nuclei were stained with Hoechst 33342.

Assay [7] addresses T1, FAM19A5 protein. In words: competitive inhibition ELISA; competitor: coated LRRC4B(453-576, TT/TT)-hFc.
Assay [8] concerns the target T1, FAM19A5 protein. In words: competitive inhibition ELISA; competitor: coated LRRC4B(36-576)-hFc.
For assay [9], the target named is T1, FAM19A5 protein. In words: competitive inhibition ELISA, 20 nM peptide, rFAM19A5 5 ng/mL; competitor: coated LRRC4B(36-576)-hFc.
In assay [10] the target is T1, FAM19A5 protein. The assay is described as follows: competitive inhibition ELISA, 20 nM peptide, rFAM19A5 1 ng/mL; competitor: coated LRRC4B(453-576)-hFc.
Assay [11] deals with T1, FAM19A5 protein. The assay is described as follows: competitive inhibition ELISA, 20 nM peptide, rFAM19A5 5 ng/mL; competitor: coated LRRC4B(36-576)-hFc. The source holds these as a separate data set.
The target in assay [12] is T1, FAM19A5 protein. In words: competitive inhibition ELISA, 20 nM peptide, rFAM19A5 1 ng/mL; competitor: coated LRRC4B(453-576)-hFc. The source holds these as a separate data set.
Assay [13] has as its target T1, FAM19A5 protein. The assay is described as follows: competitive inhibition ELISA; competitor: coated LRRC4B(453-576)-hFc.

Sequence of binding of FAM19A5 protein to full-length ectodomain of LRRC4 protein (Q7Z5A7 44-132): as above
Sequence of binding of FAM19A5 protein to full-length ectodomain of the LRRC4B protein (amino acids 36-576 of SEQ ID NO: 2) (Q7Z5A7 44-132): as above
Sequence of binding of FAM19A5 protein to full-length ectodomain of LRRC4C protein (Q7Z5A7 44-132): as above
T2 sequence (Q7Z5A7 1-125 isoform Q7Z5A7-2, one chain of several): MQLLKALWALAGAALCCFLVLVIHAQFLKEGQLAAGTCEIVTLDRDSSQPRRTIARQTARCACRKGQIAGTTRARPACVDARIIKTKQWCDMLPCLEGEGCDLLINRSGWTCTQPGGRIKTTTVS

B1: full-length ectodomain of LRRC4B protein (amino acids 36-576 of SEQ ID NO: 2) conjugated to human Fc (Fc fusion, not shown: a dimerising Fc or GST)
chain: AGGGGVAVTSAAGGGSPPATSCPVACSCSNQASRVICTRRDLAEVPASIPVNTRYLNLQENGIQVIRTDTFKHLRHLEILQLSKNLVRKIEVGAFNGLPSLNTLELFDNRLTTVPTQAFEYLSKLRELWLRNNPIESIPSYAFNRVPSLRRLDLGELKRLEYISEAAFEGLVNLRYLNLGMCNLKDIPNLTALVRLEELELSGNRLDLIRPGSFQGLTSLRKLWLMHAQVATIERNAFDDLKSLEELNLSHNNLMSLPHDLFTPLHRLERVHLNHNPWHCNCDVLWLSWWLKETVPSNTTCCARCHAPAGLKGRYIGELDQSHFTCYAPVIVEPPTDLNVTEGMAAELKCRTGTSMTSVNWLTPNGTLMTHGSYRVRISVLHDGTLNFTNVTVQDTGQYTCMVTNSAGNTTASATLNVSAVDPVAAGGTGSGGGGPGGSGGVGGGSGGYTYFTTVTVETLETQPGEEALQPRGTEKEPPGPTTDGVWGGGRPGDAAGPASSSTTAPAPRSSRPTEKAFTVPITDVTENALKDLDDVMKTTK
In the assay with FAM19A5 protein [1], B1 gave an EC50 of 0.64 nM.

B2: LRRC4B (484-576): LRRC4B ectodomain fragment, amino acids 484-576 of SEQ ID NO: 2 (protein)
chain: YTYFTTVTVETLETQPGEEALQPRGTEKEPPGPTTDGVWGGGRPGDAAGPASSSTTAPAPRSSRPTEKAFTVPITDVTENALKDLDDVMKTTK
For B2, the “inhibition of FAM19A5 binding to coated LRRC4C protein (in words)” value in [2] is given as “able to inhibit FAM19A5 protein from binding”. Further, the “binding to FAM19A5 protein (co-immunoprecipitation)” value with FAM19A5 protein [3] is on record as “able to bind to the FAM19A5 protein with varying degree”. For the same molecule, the “inhibition of FAM19A5 binding to coated LRRC4 protein (in words)” value in [4] is listed as “able to inhibit FAM19A5 protein from binding”. Besides, the “inhibition of FAM19A5 binding to coated full-length LRRC4B ectodomain protein (in words)” value in [5] is reported as “also able to inhibit the interaction”.

B3: full-length ectodomain of LRRC4 protein (amino acid residues 39-527 of SEQ ID NO: 1) conjugated to human Fc (Fc fusion, not shown: a dimerising Fc or GST)
chain: ASAGPQNCPSVCSCSNQFSKVVCTRRGLSEVPQGIPSNTRYLNLMENNIQMIQADTFRHLHHLEVLQLGRNSIRQIEVGAFNGLASLNTLELFDNWLTVIPSGAFEYLSKLRELWLRNNPIESIPSYAFNRVPSLMRLDLGELKKLEYISEGAFEGLFNLKYLNLGMCNIKDMPNLTPLVGLEELEMSGNHFPEIRPGSFHGLSSLKKLWVMNSQVSLIERNAFDGLASLVELNLAHNNLSSLPHDLFTPLRYLVELHLHHNPWNCDCDILWLAWWLREYIPTNSTCCGRCHAPMHMRGRYLVEVDQASFQCSAPFIMDAPRDLNISEGRMAELKCRTPPMSSVKWLLPNGTVLSHASRHPRISVLNDGTLNFSHVLLSDTGVYTCMVTNVAGNSNASAYLNVSTAELNTSNYSFFTTVTVETTEISPEDTTRKYKPVPTTSTGYQPAYTTSTTVLIQTTRVPKQVAVPATDTTDKMQTSLDEVMKTTK
In turn, B3 displayed a 50% effective concentration (EC50) with FAM19A5 protein [1] of 0.48 nM.

B4: LRRC4B mutant: LRRC4B (453-576) with alanine substitutions at positions 488 and 489 of SEQ ID NO: 2 (protein)
chain: VSAVDPVAAGGTGSGGGGPGGSGGVGGGSGGYTYFAAVTVETLETQPGEEALQPRGTEKEPPGPTTDGVWGGGRPGDAAGPASSSTTAPAPRSSRPTEKAFTVPITDVTENALKDLDDVMKTTK
modifications: human Fc
Turning to B4, in [2], the “inhibition of FAM19A5 binding to coated LRRC4C protein (in words)” value was “minimal effect”. Further, the “dissociation of FAM19A5 from full-length LRRC4B protein” value in assay [6] was “remained largely bound to the full-length LRRC4B protein”. The “inhibition of FAM19A5 binding to coated LRRC4 protein (in words)” value in assay [4] was “minimal effect”. Moreover, the “inhibition of FAM19A5 binding to coated full-length LRRC4B ectodomain protein (in words)” value in assay [5] is recorded as “much inferior in their ability to inhibit the interaction”.

B5: FB-21 (W12Y13) (peptide)
peptide: GYTYFTTVTVEWYETQPGEEA
Take B5: in the assay with FAM19A5 protein [7], the fold increase in the ability to dissociate the LRRC4B-FAM19A5 complex, compared with the wild-type FB-21 worked out at 2.9 fold.

B6: FB-20 (peptide)
peptide: GYTYFTTVTVETLETQPGEE
As to B6, the Inhibition rate (%) is 77% with FAM19A5 protein [8]; 84.3% in the assay with FAM19A5 protein [9]; 63.2% with FAM19A5 protein [10]; 77% with FAM19A5 protein [11]; 62% with FAM19A5 protein [12]; 63.2% in the assay with FAM19A5 protein [13].

Usually EC50 stands for the concentration giving half of the maximal effect. Read a high EC50 as a need for much substance.
